Measured values taken from patent US7141417 (THOMAS JEFFERSON UNIVERSITY, dated 2006).

T1: glutathione S-transferase (GST) fused with full-length (67 kilodalton) Fez1 protein (human, UniProt Q9Y250 1-596)
T1 construct: Order GST then Fez1 follows the usual pGEX layout; also called GST-fused Fez1; GST-fused full-length 67 kDa Fez1; not shown: glutathione-S-transferase (GST) of the pGEX fusion expression vector (Pharmacia)
T1 sequence: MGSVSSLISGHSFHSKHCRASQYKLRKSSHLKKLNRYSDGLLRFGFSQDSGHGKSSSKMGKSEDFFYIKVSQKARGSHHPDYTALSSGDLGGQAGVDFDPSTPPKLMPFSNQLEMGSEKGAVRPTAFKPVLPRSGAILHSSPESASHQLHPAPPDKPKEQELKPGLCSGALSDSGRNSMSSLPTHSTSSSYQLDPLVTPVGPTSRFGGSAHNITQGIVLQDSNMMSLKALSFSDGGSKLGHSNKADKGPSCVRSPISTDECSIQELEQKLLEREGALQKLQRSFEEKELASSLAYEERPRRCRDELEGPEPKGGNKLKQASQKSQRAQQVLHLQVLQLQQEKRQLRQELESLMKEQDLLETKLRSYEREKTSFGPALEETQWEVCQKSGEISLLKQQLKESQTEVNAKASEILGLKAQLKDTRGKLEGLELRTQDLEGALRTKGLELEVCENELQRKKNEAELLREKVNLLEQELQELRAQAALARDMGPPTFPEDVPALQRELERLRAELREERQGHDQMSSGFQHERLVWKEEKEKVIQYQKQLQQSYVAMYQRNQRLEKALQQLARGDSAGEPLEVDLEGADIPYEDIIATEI

B1: EF1-γ(N), ^35S-methionine-labeled in vitro translated deletion mutant of EF1-γ (other)
chain: MAAGTLYTYPENWRAFKALIAAQYSGAQVRVLSAPPHFHFGQTNRTPEFLRKFPAGKVPAFEGDDGFCVFESNAIAYYVSNEELRGSTPEAAAQVVQWVSFADSDIVPPASTWVFPTLGIMHHNKQATENAKEEVRRILGLLDAYLKTRTFLV
modifications: ^35S-methionine label ; 35S-labelled methionine residues (radiolabel), written M
B2: GST fused with EF1-γ(N) (other, human, UniProt P26641 1-153, looked up)
chain: B1 chain
notes: not shown: glutathione S-transferase (GST)
B3: ^35S-methionine-labeled in vitro translated full-length 67 kDa Fez1 (other)
chain: T1 sequence
modifications: ^35S-methionine label
notes: also called full-length (67 kDa) Fez1 protein
B4: EF1-γ(M), ^35S-methionine-labeled in vitro translated deletion mutant of EF1-γ (other)
chain: GERVTLADITVVCTLLWLYKQVLEPSFRQAFPNTNRWFLTCINQPQFRAVLGEVKLCEKMAQFDAKKFAETQPKKDTPRKEKGSREEKQKPQAERKEEKKAAAPAPEEEMDECEQALAAEPKAKDPFAHLPKSTFVLDEFKRKYSNEDT
modifications: ^35S-methionine label ; 35S-labelled methionine residues (radiolabel), written M
B5: ^35S-methionine-labeled in vitro translated EF1-α (other, UniProt P68104 1-462, looked up)
chain: MGKEKTHINIVVIGHVDSGKSTTTGHLIYKCGGIDKRTIEKFEKEAAEMGKGSFKYAWVLDKLKAERERGITIDISLWKFETSKYYVTIIDAPGHRDFIKNMITGTSQADCAVLIVAAGVGEFEAGISKNGQTREHALLAYTLGVKQLIVGVNKMDSTEPPYSQKRYEEIVKEVSTYIKKIGYNPDTVAFVPISGWNGDNMLEPSANMPWFKGWKVTRKDGNASGTTLLEALDCILPPTRPTDKPLRLPLQDVYKIGGIGTVPVGRVETGVLKPGMVVTFAPVNVTTEVKSVEMHHEALSEALPGDNVGFNVKNVSVKDVRRGNVAGDSKNDPPMEAAGFTAQVIILNHPGQISAGYAPVLDCHTAHIACKFAELKEKIDRRSGKKLEDGPKFLKSGDAAIVDMVPGKPMCVESFSDYPPLGRFAVRDMRQTVAVGVIKAVDKKAAGAGKVTKSAQKAQKAK
modifications: ^35S-methionine label

Columns and labels:
[1] = biological target: T1, glutathione S-transferase (GST) fused …; assay: in vitro binding of ^35S-labeled deletion mutants with GST-fused Fez1
Protocol: (§1) In vitro Transcription/Translation, GST-Fusion Protein and in vitro Binding Assay In vitro transcription and translation was performed using a commercially-available, rabbit reticulocyte-based system, (TNT™ T7 Quick Coupled Transcription/Translation System, Promega) by labeling with ^35S-methionine, according to supplier's instructions. GST-fusion proteins were isolated using a glutathione-agarose column (Pharmacia). Proteins were incubated in two binding buffers: buffer A (comprising 100 millimolar NaCl, 0.5% NP-40, 0.75 milligrams per milliliter bovine serum albumin (BSA), 20 millimolar Tris-HCl pH 8.0, and 1 millimolar EDTA) and buffer B (comprising 150 millimolar NaCl, 0.1% (v/v) Tween 20, 0.75 milligrams per milliliter BSA, 50 millimolar Tris-HCl pH 8.0, 5 millimolar EDTA, 10% (v/v) glycerol). After the glutathione-agarose beads had been pre-incubated in a 10% (w/v) BSA suspension, the beads were mixed with protein samples and washed 5 times, each wash comprising mixing the beads with 10 volumes of the binding buffer. After the beads had been washed, the bead-containing liquid was centrifuged to recover binding proteins. The samples were boiled for 3 minutes and then the proteins in the samples were separated by SDS-PAGE. The gel was dried and exposed to film for 4–24 hours at –80° C.

[2] = biological target: B3; assay: in vitro binding assay (figure legend); by paragraph 373 the labeled partner was Fez1 and EF1-γ(N) was GST-fused
Protocol: as §1, with “C. […]” for “C.”

[3] = biological target: T1, glutathione S-transferase (GST) fused …; assay: in vitro binding of ^35S-labeled full-length Fez1 with GST-fused full-length Fez1, buffer B
Protocol: as §1
The amino acid sequence of Fez1 comprises a leucine-zipper-like region. […]

[4] = biological target: T1, glutathione S-transferase (GST) fused …; assay: in vitro binding of ^35S-methionine-labeled in vitro translated EFs to GST-fused Fez1, glutathione-agarose beads, SDS-PAGE
Protocol: as §1

## B1
[1]
  binding result: binds

## B2
[2]
  binding result: binds

## B3
[3]
  binding result: binds

## B4
[1]
  binding result: no binding

## B5
[4]
  binding result: no binding
